{
  "source": "paper PMC11018872",
  "about": "“Dynamic inter-domain transformations mediate the allosteric regulation of human 5, 10-methylenetetrahydrofolate reductase” (Nature Communications, 2024)",
  "target": "the molecule itself",
  "assay": "negative stain EM; TEV-cleaved purified MTHFRFL, 50 nM in 20 mM HEPES pH 7.5, 200 mM NaCl with 5 mM SAM or 2.6 mM SAH; 2D classes",
  "data": [
    {"protein": "full-length human 5,10-methylenetetrahydrofolate reductase (MTHFRFL aa 1-656) (enzyme, multiply phosphorylated during its recombinant expression (N-terminal Ser/Thr-rich region; sites not given), human 5,10-methylenetetrahydrofolate reductase (MTHFR), full-length, aa 1-656, wild type; Homodimer; also called MTHFRFL^SAM; MTHFRFL^(SAH (symm)); source: baculovirus/insect cell system, SF9 cells, purified (Ni-NTA, Superdex 200 size exclusion); flag/His10 tag removed with TEV protease; not shown: FLAG, C-terminal, cleaved; His10, C-terminal, cleaved) not shown", "values": [
      {"measurement": "binding result", "value": "binds"}
    ]}
  ]
}
